Laboratory results: US20250277199, “NOVEL CRISPR-CAS NUCLEASES FROM METAGENOMES” (Brain Biotech AG, published 2025)

Target: T1, BMC10 (uncultured bacterium (metagenome))
T1 chain: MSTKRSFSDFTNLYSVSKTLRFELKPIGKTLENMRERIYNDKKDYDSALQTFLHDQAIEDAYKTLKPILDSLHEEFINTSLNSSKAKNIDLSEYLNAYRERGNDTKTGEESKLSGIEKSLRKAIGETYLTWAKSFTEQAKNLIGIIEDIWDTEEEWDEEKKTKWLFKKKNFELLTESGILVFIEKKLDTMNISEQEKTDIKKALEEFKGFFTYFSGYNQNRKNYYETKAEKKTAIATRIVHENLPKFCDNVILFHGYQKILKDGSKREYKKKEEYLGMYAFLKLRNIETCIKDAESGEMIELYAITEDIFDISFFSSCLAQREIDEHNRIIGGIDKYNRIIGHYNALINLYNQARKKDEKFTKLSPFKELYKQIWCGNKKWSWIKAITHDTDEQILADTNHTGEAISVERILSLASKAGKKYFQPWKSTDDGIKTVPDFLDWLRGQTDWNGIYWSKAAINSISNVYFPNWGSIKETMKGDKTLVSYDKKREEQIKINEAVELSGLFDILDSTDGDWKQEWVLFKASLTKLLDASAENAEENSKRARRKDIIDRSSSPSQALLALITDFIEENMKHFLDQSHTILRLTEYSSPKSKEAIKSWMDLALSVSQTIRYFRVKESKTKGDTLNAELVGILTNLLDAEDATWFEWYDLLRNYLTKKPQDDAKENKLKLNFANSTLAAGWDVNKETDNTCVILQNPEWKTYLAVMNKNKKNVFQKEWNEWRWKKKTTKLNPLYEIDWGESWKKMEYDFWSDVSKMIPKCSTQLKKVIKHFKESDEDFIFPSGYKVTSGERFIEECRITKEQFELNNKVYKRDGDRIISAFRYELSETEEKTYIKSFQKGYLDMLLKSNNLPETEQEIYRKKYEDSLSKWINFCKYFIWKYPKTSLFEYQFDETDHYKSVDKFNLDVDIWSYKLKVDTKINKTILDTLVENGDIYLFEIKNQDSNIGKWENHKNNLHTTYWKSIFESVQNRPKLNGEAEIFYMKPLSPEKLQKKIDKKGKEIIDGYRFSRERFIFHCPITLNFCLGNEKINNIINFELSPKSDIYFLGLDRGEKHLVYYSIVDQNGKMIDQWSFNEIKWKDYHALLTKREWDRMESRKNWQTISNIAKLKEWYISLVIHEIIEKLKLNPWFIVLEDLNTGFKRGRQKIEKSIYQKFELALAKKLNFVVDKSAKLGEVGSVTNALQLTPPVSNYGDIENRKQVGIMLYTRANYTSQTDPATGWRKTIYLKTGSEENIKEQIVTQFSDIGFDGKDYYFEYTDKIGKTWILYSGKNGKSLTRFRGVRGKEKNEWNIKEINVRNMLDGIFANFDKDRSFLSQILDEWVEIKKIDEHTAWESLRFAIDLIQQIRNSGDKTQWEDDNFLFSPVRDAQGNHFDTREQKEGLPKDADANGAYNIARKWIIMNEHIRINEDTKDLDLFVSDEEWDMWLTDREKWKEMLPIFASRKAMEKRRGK
Assay: cell_activity; PAM not stated; E. coli depletion, 30 C
Protocol: Overnight grown pre-cultures were diluted into fresh 60 ml LB-Kanamycin (25 μg/ml) (Example 4) or LB-Kanamycin (25μg/ml)/Nourseothricin (50 μg/ml) medium (Example 5) to obtain an optical density at 600 nm (OD600) of 0.06. The inoculated medium was incubated at 30° C. on a horizontal shaker at 250 rpm until the culture reached an optical density at OD600 of 0.2. For induced BMC (NN) nuclease expression, 600 μl 20% L-(+)-arabinose (w/v) was added to the culture at a final concentration of 0.2% (v/v). The cultivation was continued until the culture reached an optical density at OD600 of 0.5. Subsequently 50 ml culture was transferred into one 50 ml conical tube and harvested by centrifugation at 4° C. for 5 min and 4000×g. Pelleted cells were resuspended in 50 ml ultrapure water (ice-cold) and centrifuged at 4° C. for 5 min and 4000×g.
This washing procedure was repeated twice. Washed cells were resuspended in 25 ml 10% (w/w) glycerin and re-centrifuged at 4° C. for 5 min and 4000×g. The pelleted cells were resuspended in 5 ml 10% (w/w) glycerin. After the final centrifugation step at 4° C. for 5 min and 4000×g, the cells were resuspended in 125 μl 10% (w/w) glycerin. Aliquots of 25 μl competent cells were stored at −80° C. until use. For the transformation procedure, aliquots of competent cells were thawed on ice and 50-100 ng plasmid DNA (CRISPR/gRNA-Ec) was added. Prepared cells were electroporated at 1800 V, 25 μF and 200 Ω in 1 mm gap size electroporation cuvettes, using the Bio-Rad Gene Pulser Xcell Electroporation System. Subsequently, 975 μL of NEB® 10-beta/Stable Outgrowth Medium was added immediately after the pulse to the transformed cells. Regeneration was done at 30° C. on a horizontal shaker at 250 rpm. Finally, 25-100 μl of the cell suspension was plated onto selective M9-Glucose agar plates supplemented with Kanamycin (25 μg/ml)/Ampicillin (100 μg/ml) (Example 4) or Kanamycin (25 μg/ml)/Ampicillin (100 μg/ml)/Nourseothrin (50 μg/ml) (Example 5). Growth of transformed E. coli cells on selective agar plates was screened for 48 h at 30° C.
As described above, each of the BMC01, BMC02, BMC03, BMC04, BMC05, BMC07, BMC08, BMC09, BMC10, BMC11, BMC12, BMC13, BMC14, or BMC15 nucleases was co-transformed into E. coli with a gRNA targeting the E. coli malQ gene to visualize a) the activity and b) the DNA targeting efficiency of the BMC nucleases.

B1: malQ gRNA (BMC stem-loop + 24 nt spacer) ; malQ protospacer (ssRNA ; dsDNA)
RNA: GAUUUCUACUAUUGUAGAUGUGGCGGUACGUUGAUGCAUCGCG
DNA 1: GTGGCGGTACGTTGATGCATCGCG
DNA 2: CGCGATGCATCAACGTACCGCCAC
  activity: > 99.9 % colony reduction
